The target of the assay is Vibrio campbellii chitoporin VhChiP, wild type (Vibrio campbellii (formerly Vibrio harveyi) BAA-1116). Nature of the assay: SEC.

The substance “Vibrio campbellii chitoporin VhChiP, wild type (natural protein)” displayed a stoichiometry N of 3.

By stoichiometry N is commonly meant the number of molecules, sites or subunits per partner or assembly.

The values above are taken from doi:10.1101/2020.06.24.169508.
